Measurements from patent US7951775B2, “Methods and pharmaceutical compositions for GnRH-I and GnRH-II modulation of T-cell activity, adhesion, migration and extravasation” (priority 2001, dated 2011).
Entries after “also recorded” stand apart in the source; their conditions may differ.

Tests used:
Type in all cases: cell-based
normal human T-cells [1] = test: Double immunofluorescence staining (FACS) for surface 67 kDa laminin receptor and TCR; conditions: for 67 kDa LR and TCR positive (double positive) cell population: 10 nM, 48 hours, 37° C., untreated 35.7%; for surface expression of the 67 kDa LR, in words: vs untreated normal human T-cells
Description: Normal human T-cells, isolated from fresh peripheral blood lymphocytes, or EL-4 T-lymphocyte cells were subjected to double immunofluorescence staining, using a mouse monoclonal anti-67 kDa LR antibody (100 μl of 1:20 dilution per 1×10^6 cells/tube; 30 minutes on ice), or normal mouse sera for control. The cells were then stained with an FITC-conjugated goat anti-mouse IgG (100 μl of 1:100 dilution), and PE-conjugated mouse anti-human TCR αβ mAb (2 μl of stock). Cells that were stained only with the second and third antibodies served as additional negative controls. Fluorescence profiles were recorded in a FACSORT. To determine whether GnRH-II and GnRH-I trigger not only the gene transcription but also the surface expression of the 67 kDa LR, normal human T-cells were treated with either GnRH-II or GnRH-I for 18-66 h and subjected to double immunofluorescence staining using a monoclonal antibody (mAb) that is specific for the 67 kDa LR, and a phycoerythrin (PE)-conjugated anti-TCRαβ mAb (to confirm the T-cell origin of the cells). FIGS. 2A-2C show the staining for the untreated, GnRH-I treated and GnRH-II treated T-cells, respectively. The FACS profiles can be interpreted by division according to four categories: 1. Negative staining for both mAbs (double negative, lower left quadrant); 2. Single positive staining only with the anti-LR mAb (lower right quadrant), 3. Single positive staining only with the anti-TCR mAb (upper left quadrant); 4. Double positive staining with both mAbs (upper right quadrant). […] In different experiments, each using freshly isolated T-cells from a different human donor, both GnRH II and GnRH I repeatedly elevated the laminin receptor expression level, but the magnitude of elevation varied within a range of 6-40%. Such variations between T-cell populations originating from different donors are often observed in respect to various T-cell features and functions.

normal human T-cells [2] = test: T-cell adhesion to laminin assay; conditions: 10 nM, 48 hours pretreatment; PMA 10 ng/ml positive control; four donors
Description: Adhesion of T-cells to laminin was assayed as follows: normal human T-cells, purified from a fresh blood sample, were suspended (1×10^6 cells/ml) in rest medium (RPMI-1640, supplemented with 10% fetal calf serum (Sigma Chemical Co., St. Louis, Mo.), 1% antibiotics, 1% glutamine (Biological Industries, Beit Haemek, Israel) and 0.4% fungizone (GibcoBRL, Life Technologies Ltd., Paisley, Scotland)). The cells were then supplemented with 10 nM GnRH-I or GnRH-II and incubated for variable periods of time (0.5-72 hours, 37° C., 7.5% CO2 humidified incubator). Following incubation the cells were washed and resuspended in adhesion medium (RPMI-1640 supplemented with 0.1% bovine serum albumin (BSA, Sigma)). […] The optical density (OD) was measured at 405 nm in a standard ELISA reader. […]
To study the functional consequences of the increase in the 67 kDa LR expression level following GnRH stimulation, the ability of GnRH-treated normal human T-cells to adhere to laminin was assessed. […] In parallel, increasing numbers of untreated cells were seeded on separate plates, in order to establish a standard curve, enabling the relation of results obtained in units of fluorescence intensity (OD) to actual number of cells.

[3] = system: mouse antigen-specific T cells; test: Atlas mouse cDNA expression array of GnRH-II treated T-cells
Description: Anti-MBP 87-99 T-cell lines were established from lymph nodes of SJI/J mice as described^23 and analyzed for their specificity to MBP 87-99 peptide in a proliferation assay.
Poly A+RNA was extracted from the mouse anti-MBP 87-99 cell line before and after treatment with 10 nM GnRH-II for 24 hours, using the ATLAS Pure Total RNA Labeling System (Clontech Laboratories, Inc. Palo Alto, Calif.) according to manufacturers recommendations. Following DNase treatment, ^32P-labeled cDNA was prepared from poly A+ RNA preparations that were prepared from either untreated or GnRH-II treated mouse T-cells. Hybridizations to the ATLAS Mouse cDNA Expression Arrays membranes (Catalog No. PT3140-1, Clontech Laboratories), were performed according to the user manual, and the expression pattern was visualized by autoradiography.
Poly A+ RNA was prepared from both GnRH-II-treated and untreated cells and reverse transcribed to ^32P-labeled cDNA. Using an Atlas cDNA expression array (i.e. a positively charged nylon membrane spotted with 1200 different cDNAs) for identification of effected genes, the reverse transcribed products were characterized by hybridization to the atlas membranes. The differential pattern of expression between untreated cells and GnRH-II-treated cells was visualized by autoradiography (FIGS. 1A and 1B).

Molecule	67 kDa LR and TCR positive (double positive) cell population (normal human T-cells [1]) [%]	surface expression of the 67 kDa LR, in words (normal human T-cells [1])	T-cell adhesion to laminin (normal human T-cells [2])	expression of mRNA encoding non-integrin 67 kDa laminin receptor ([3]; 10 nM, 24 hours, resting mouse antigen-specific T-cells, vs untreated cells)	transcription of other genes including house-keeping gene nucleoside diphosphate kinase B ([3]; 10 nM, 24 hours, vs untreated cells)	synthesis of CD4 antigen, Cyclin D2 and thymus cell antigen 1 genes (changed by antigenic stimulation) ([3]; GnRH-II alone 10 nM, data not shown)
pGlu-His-Trp-Ser-Tyr-Gly-Leu-Arg-Pro-Gly-NH2 [GnRH-I]	72.4	significantly increased	as efficiently as PMA; also recorded: as markedly as does PMA			
GnRH-II: unique ten amino acid long neuropeptide, 70% homologous in peptide structure to GnRH-I, encoded by its own gene (peptide) peptide: QHWSHGWYPGGKRALSSAQDPQNALRPPGRALDTAAGSPVQTAHGLPSDALAPLDDSMPWEGRTTAQWSLHRKRHLARTLLTAAREPRPAPPSSNKV	74.3	significantly increased	as efficiently as PMA; also recorded: as markedly as does PMA	induced the over expression	not affected	did not affect
